{
  "source": "paper PMC10628199",
  "about": "“Structural and functional investigations of syn-copalyl diphosphate synthase from Oryza sativa” (Communications Chemistry, 2023)",
  "key": {"OsCyc1^69–767": {"molecular_target": "T1, OsCyc1^69–767 (Oryza sativa, UniProt Q0JF02, D367A)", "T1 construct": "gene CPS4", "T1 sequence (Q0JF02 69-767 D367A)": "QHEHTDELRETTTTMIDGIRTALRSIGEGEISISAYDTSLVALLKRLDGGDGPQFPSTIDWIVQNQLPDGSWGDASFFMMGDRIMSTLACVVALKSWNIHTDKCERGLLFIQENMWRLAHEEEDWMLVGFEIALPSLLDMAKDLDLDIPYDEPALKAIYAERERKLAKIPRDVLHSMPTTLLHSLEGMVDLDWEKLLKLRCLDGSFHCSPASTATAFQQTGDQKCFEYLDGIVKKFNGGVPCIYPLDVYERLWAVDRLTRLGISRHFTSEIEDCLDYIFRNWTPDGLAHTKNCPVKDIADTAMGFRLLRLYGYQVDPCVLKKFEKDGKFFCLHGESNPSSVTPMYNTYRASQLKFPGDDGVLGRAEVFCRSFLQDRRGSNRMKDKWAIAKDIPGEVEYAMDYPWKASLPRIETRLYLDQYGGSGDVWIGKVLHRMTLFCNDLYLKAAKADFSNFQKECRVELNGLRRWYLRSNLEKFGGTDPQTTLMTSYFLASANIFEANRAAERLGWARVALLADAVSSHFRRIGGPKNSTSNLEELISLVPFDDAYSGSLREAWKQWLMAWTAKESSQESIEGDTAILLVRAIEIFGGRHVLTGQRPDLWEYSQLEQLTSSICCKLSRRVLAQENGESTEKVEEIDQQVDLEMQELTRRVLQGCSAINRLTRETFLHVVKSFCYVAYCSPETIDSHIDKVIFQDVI", "details": "0.1 mM GGPP soaked; 20 mM Tris-HCl pH 8.0, 200 mM NaCl, 2 mM DTT, 5 mM MgCl2; active site between beta and gamma domains"}, "OsCyc1 (full-length)": {"molecular_target": "T2, OsCyc1 (full-length) (Oryza sativa, UniProt Q0JF02)", "T2 construct": "gene CPS4", "details": "pH 8.0, 16 °C, 2 h, no added Mg2+; product syn-CPP"}, "[1]": {"molecular_target": "OsCyc1^D367A mutant (in complex with the substrate GGPP) (Oryza sativa) (UniProt Q0JF02)", "test": "cryo-EM structure; OsCyc1 D367A at 3 mg/mL in buffer B, soaked with 0.1 mM GGPP; hexamer used as initial model for 3D classification; 4.0 Å"}, "[2]": {"molecular_target": "the molecule itself", "test": "cryo-EM structure; WT OsCyc1 at 1.8 mg/mL in buffer B (20 mM Tris-HCl pH 8.0, 200 mM NaCl, 2 mM DTT, 5 mM MgCl2); dimers, tetramers and hexamers selected separately after 2D classification"}, "[3]": {"molecular_target": "the molecule itself", "test": "crystal structure; OsCyc1 69-767 at 10 mg/mL, hanging drop, 18 °C, 2% 1,4-dioxane, 0.1 M Tris pH 8.0, 15% PEG 3,350; space group P212121, hexamer in the asymmetric unit; 3.5 Å"}},
  "note": "“And” between values parts separate entries of the source, which are not always exact repeats. Equal entries are not always repeated.",
  "data": [
    {"molecule": "CC(C)=CCC/C(C)=C/CC/C(C)=C/CC/C(C)=C/COP(=O)(O)OP(=O)(O)O", "note": "[GGPP]", "values": [
      {"measurement": "cryo-EM structure of the complex, 4.0 A", "setting": "OsCyc1^69–767", "value": "cryo-EM structure of the OsCyc1^D367A mutant in complex with substrate GGPP"},
      {"measurement": "GC-MS of dephosphorylated product", "setting": "OsCyc1 (full-length)", "value": "OsCyc1 catalyzes GGPP to form syn-CPP"}
    ]},
    {"molecule": "OsCyc1^D367A mutant (in complex with the substrate GGPP) (from UniProt Q0JF02 69-767) (enzyme)", "values": [
      {"measurement": "stoichiometry N", "setting": "[1]", "value": 6}
    ]},
    {"molecule": "OsCyc1, wild type, as used for cryo-EM (enzyme, Oryza sativa, syn-copalyl diphosphate synthase OsCyc1 (OsCPS4), Oryza sativa, wild type; the cryo-EM methods say only 'OsCyc1'); the deposited entries tell the construct; Probably the same protein as m1 or m2; also called WT OsCyc1; source: E. coli BL21(DE3), purified; in buffer B) LISKSPPYPASEETREWEADGQHEHTDELRETTTTMIDGIRTALRSIGEGEISISAYDTSLVALLKRLDGGDGPQFPSTIDWIVQNQLPDGSWGDASFFMMGDRIMSTLACVVALKSWNIHTDKCERGLLFIQENMWRLAHEEEDWMLVGFEIALPSLLDMAKDLDLDIPYDEPALKAIYAERERKLAKIPRDVLHSMPTTLLHSLEGMVDLDWEKLLKLRCLDGSFHCSPASTATAFQQTGDQKCFEYLDGIVKKFNGGVPCIYPLDVYERLWAVDRLTRLGISRHFTSEIEDCLDYIFRNWTPDGLAHTKNCPVKDIDDTAMGFRLLRLYGYQVDPCVLKKFEKDGKFFCLHGESNPSSVTPMYNTYRASQLKFPGDDGVLGRAEVFCRSFLQDRRGSNRMKDKWAIAKDIPGEVEYAMDYPWKASLPRIETRLYLDQYGGSGDVWIGKVLHRMTLFCNDLYLKAAKADFSNFQKECRVELNGLRRWYLRSNLEKFGGTDPQTTLMTSYFLASANIFEANRAAERLGWARVALLADAVSSHFRRIGGPKNSTSNLEELISLVPFDDAYSGSLREAWKQWLMAWTAKESSQESIEGDTAILLVRAIEIFGGRHVLTGQRPDLWEYSQLEQLTSSICCKLSRRVLAQENGESTEKVEEIDQQVDLEMQELTRRVLQGCSAINRLTRETFLHVVKSFCYVAYCSPETIDSHIDKVIFQDVI", "values": [
      {"measurement": "stoichiometry N", "setting": "[2]", "value": "2 and 4 and 6"}
    ]},
    {"molecule": "OsCyc1^69–767 (N-terminal truncation variant of syn-copalyl diphosphate synthase from Oryza sativa) (enzyme, UniProt Q0JF02 69-767, looked up, plastid targeting peptide removed; codon-optimized synthetic gene; monomer 80.8 kDa; Cloned in pET-24a(+) between NdeI and XhoI 'including a His-tag'; this cloning would usually give a C-terminal His6 (surmise); also called truncated OsCyc1; pseudo-mature protein) QHEHTDELRETTTTMIDGIRTALRSIGEGEISISAYDTSLVALLKRLDGGDGPQFPSTIDWIVQNQLPDGSWGDASFFMMGDRIMSTLACVVALKSWNIHTDKCERGLLFIQENMWRLAHEEEDWMLVGFEIALPSLLDMAKDLDLDIPYDEPALKAIYAERERKLAKIPRDVLHSMPTTLLHSLEGMVDLDWEKLLKLRCLDGSFHCSPASTATAFQQTGDQKCFEYLDGIVKKFNGGVPCIYPLDVYERLWAVDRLTRLGISRHFTSEIEDCLDYIFRNWTPDGLAHTKNCPVKDIDDTAMGFRLLRLYGYQVDPCVLKKFEKDGKFFCLHGESNPSSVTPMYNTYRASQLKFPGDDGVLGRAEVFCRSFLQDRRGSNRMKDKWAIAKDIPGEVEYAMDYPWKASLPRIETRLYLDQYGGSGDVWIGKVLHRMTLFCNDLYLKAAKADFSNFQKECRVELNGLRRWYLRSNLEKFGGTDPQTTLMTSYFLASANIFEANRAAERLGWARVALLADAVSSHFRRIGGPKNSTSNLEELISLVPFDDAYSGSLREAWKQWLMAWTAKESSQESIEGDTAILLVRAIEIFGGRHVLTGQRPDLWEYSQLEQLTSSICCKLSRRVLAQENGESTEKVEEIDQQVDLEMQELTRRVLQGCSAINRLTRETFLHVVKSFCYVAYCSPETIDSHIDKVIFQDVI", "values": [
      {"measurement": "stoichiometry N", "setting": "[3]", "value": 6}
    ]}
  ]
}
